The results in this text go back to patent publication US6323001A, “Increasing the trehalose content of organisms by transforming them with combinations of the structural genes for trehalose synthase” (BTG International Ltd., priority 1994, dated 2001).

This data set has as its system phosphoglucoisomerase (PGI) activity. The data set can be described thus: PGI activity of TPS activator. Format: biochemical, S. cerevisiae. The settings on record: 50 mM HEPES/KOH pH 7.0, 5 mM MgCl2, 5 mM F6P; stored several months at 0° C. Here is the method: The PGI activity of a sample of TPS activator that had been stored for several months at 0° C. was measured in 50 mM HEPES/KOH pH 7.0, 5 mM MgCl2, 5 mM F6P and 0.4 mg/ml NADP. A specific activity of 190 U/mg was found.

B1: TPS activator: TPS activator from S. cerevisiae, identical to yeast phosphoglucoisomerase (protein, UniProt P12709 2-554, looked up)
Glucose-6-phosphate isomerase: SNNSFTNFKLATELPAWSKLQKIYESQGKTLSVKQEFQKDAKRFEKLNKTFTNYDGSKILFDYSKNLVNDEIIAALIELAKEANVTGLRDAMFKGEHINSTEDRAVYHVALRNRANKPMYVDGVNVAPEVDSVLKHMKEFSEQVRSGEWKGYTGKKITDVVNIGIGGSDLGPVMVTEALKHYAGVLDVHFVSNIDGTHIAETLKVVDPETTLFLIASKTFTTAETITNANTAKNWFLSKTGNDPSHIAKHFAALSTNETEVAKFGIDTKNMFGFESWVGGRYSVWSAIGLSVALYIGYDNFEAFLKGAEAVDNHFTQTPLEDNIPLLGGLLSVWYNNFFGAQTHLVAPFDQYLHRFPAYLQQLSMESNGKSVTRGNVFTDYSTGSILFGEPATNAQHSFFQLVHQGTKLIPSDFILAAQSHNPIENKLHQKMLASNFFAQAEALMVGKDEEQVKAEGATGGLVPHKVFSGNRPTTSILAQKITPATLGALIAYYEHVTFTEGAIWNINSFDQWGVELGKVLAKVIGKELDNSSTISTHDASTNGLINQFKEWM
In turn, B1 gave a PGI specific activity of 190 U/mg.
